The record followed here is patent US20100098761A1, “Polymer Compositions For Biomedical And Material Applications” (University of Massachusetts Medical School, priority 2007, published 2010).

The test system of the assay is murine macrophage RAW264.7 cells. In words: Osteoclastic differentiation of RAW264.7 cells (TRAP stain). The format is cell-based. Here is the method: Grafts (5×5×1 mm, FlexBone 25% HA-25% TCP) were pre-absorbed with varying amounts of growth factors and cytokines to provide an exogenous supply for remodeling. […] The preferred loading dose of RANKL (10 ng/FlexBone graft) was determined by the osteoclastic differentiation of macrophage RAW264.7, induced by the RANKL released from the graft as indicated by positive TRAP stains (purple) of multinucleated cells on Day 6. […] Finally, the preferred loading dose of rhVEGF165 in stimulating the proliferation of human vascular endothelial cells in culture was determined to be 5 ng/graft.
Materials. The radical inhibitors in the commercial 2-hydroxyethyl methacrylate (HEMA, Aldrich) and ethylene glycol dimethacrylate (EGDMA, Aldrich) were removed via distillation under reduced pressure and by passing through a 4 Å molecular sieve column prior to use, respectively. […] In a typical procedure, 0-5.0 wt % TCH was dissolved in the mixture of freshly distilled monomer HEMA, 2% cross-linker EGDMA and viscous solvent ethylene glycol under bath-sonication, before 25 wt % HA, 25 wt % TCP, and the aqueous radical initiators ammonium persulfate and sodium metasulfite were added and thoroughly mixed (Table I). […] The compressive behavior of FlexBone in fully hydrated state as a function of TCH content was analyzed using a Q800 Dynamic Mechanical Analyzer (DMA, TA Instruments) equipped with a submersion compression fixture. […] An L-square was used to make sure that the sanded top and bottom surfaces were parallel prior to testing, and the final dimensions of each specimen were measured by a digital caliper. […] All stress-strain curves presented are based on the engineering stress and engineering strain recorded, assuming a fixed cross-section of the material defined at the start of the test. […] The release of TCH from FlexBone vs. pHEMA hydrogel in water as a function of time and the initial TCH incorporation was monitored over 1 week at 357.9 nm. […]

B1: rmRANKL: recombinant receptor activator of nuclear factor κB ligand, E. coli expressed (protein, UniProt O35235 139-316, looked up)
Tumor necrosis factor ligand …: FSGAPAMMEGSWLDVAQRGKPEAQPFAHLTINAASIPSGSHKVTLSSWYHDRGWAKISNMTLSNGKLRVNQDGFYYLYANICFRHHETSGSVPTDYLQLMVYVVKTSIKIPSSHNLMKGGSTKNWSGNSEFHFYSINVGGFFKLRAGEEISIQVSNPSLLDPDQDATYFGAFKVQDID
Regarding B1, the osteoclast differentiation entry runs as follows: (continued supplement of 10-ng every other day, day six) “formation of TRAP-positive multinucleated osteoclasts”; (single supplement of 10-ng directly to culture) “not sufficient in inducing the osteoclast differentiation”. Besides, the preferred loading dose (determined by osteoclastic differentiation of RAW264.7, TRAP stains Day 6) was 10 ng/FlexBone graft.
